# ± gives the uncertainty stated by the source.
# B1: Glucocorticoid receptor, residues 419 to 494; numbered along this chain, P04150 (parent)
# chain: KLCLVCSDEASGCHYGVLTCGSCKVFFKRAVEGQHNYLCAGRNDCIIDKIRRKNCPACRYRKCLQAGMNLEARKTK
# Variants of: B1
# Assay: abundance fitness (aPCA) (normalised: wild type 0, dead -1); higher = more abundant; growth selection in yeast, the domain comes from the species named
# Conditions: Homo sapiens
row,Variant,abundance fitness
1,KLCLVCSDEASGCHYGVLTCESCKVFFKRAVEGQHNYLCAGRNDCIIDKIRRKNCPACRYRKCLQAGMNLEARKTK,0.076 ± 0.042
2,KLCLVCSDEASGCHYGVLTCGSCKVFFKRAVEGQHNYLCAGRNDCIIDKIRRLNCPACRYRKCLQAGMNLEARKTK,-0.017 ± 0.034
3,KLCLVCSDEASGCHMGVLTCGSCKVFFKRAVEGQHNYLCAGRNDCIIDKIRRKNCPACRYRKCLQAGMNLEARKTK,-0.009 ± 0.045
4,KLCLVCSDEASGCHYGVLTCGSCKVFFKRAVEGQHNYLCAGRNDCIIDKIRRKNCPACRYRKCLQAGMNLEQRKTK,0.008 ± 0.043
5,KLCLVCSDEASGCHYGVLTCGSCKVTFKRAVEGQHNYLCAGRNDCIIDKIRRKNCPACRYRKCLQAGMNLEARKTK,-1.06 ± 0.18
6,KLCLVCSKEASGCHYGVLTCGSCKVFFKRAVEGQHNYLCAGRNDCIIDKIRRKNCPACRYRKCLQAGMNLEARKTK,-0.27 ± 0.069
7,KLCLVCSDEASGCHYGVLTCGSCKVFFKRAVEGQHNYLCAGWNDCIIDKIRRKNCPACRYRKCLQAGMNLEARKTK,-0.077 ± 0.039
8,KLCLVCSDEASGCHYGVLTCGSCKVFFKRAVEGQHNYLCAGRNDCIIDKIRRYNCPACRYRKCLQAGMNLEARKTK,-0.026 ± 0.066
9,KLCLVCSDEASGCHYMVLTCGSCKVFFKRAVEGQHNYLCAGRNDCIIDKIRRKNCPACRYRKCLQAGMNLEARKTK,-0.369 ± 0.08
10,KLCLVCSDEASGCHYGVLTCGSCKVFFKRAVEGQHNYLCAGRNDCIIDKIRRKVCPACRYRKCLQAGMNLEARKTK,-0.025 ± 0.035
11,KLCLVCSDEASGCHYGVLTCGSCKVFFKRAVEGQHNYLCAGRNDCIIDKIRRFNCPACRYRKCLQAGMNLEARKTK,-0.033 ± 0.059
12,KLCLVCSDEASGCHYGVLTCGSCKVFFKRAVEGQHNYLCAGRNDCIIDKIRRKKCPACRYRKCLQAGMNLEARKTK,0.049 ± 0.043
13,KLCLVCSMEASGCHYGVLTCGSCKVFFKRAVEGQHNYLCAGRNDCIIDKIRRKNCPACRYRKCLQAGMNLEARKTK,-0.216 ± 0.067
14,KLCLVCSDEASGCHYGVLTCGSCKVFFKRAVEGQHNYLCAGRNDCIIKKIRRKNCPACRYRKCLQAGMNLEARKTK,-0.487 ± 0.092
15,KLCLVCSDEASGCHYGVLTCGSCKVFFKRAVEGQHNYLCAGRNSCIIDKIRRKNCPACRYRKCLQAGMNLEARKTK,-0.08 ± 0.044
16,KLCLVCSDEASGCHYGVLTCGSCKVFFKRAVEGQHNYLCAGRNDCIIDKIRRKNCPACRYRKCLQAGMNLEARKTN,0.045 ± 0.095
17,KLCLVCSDEAWGCHYGVLTCGSCKVFFKRAVEGQHNYLCAGRNDCIIDKIRRKNCPACRYRKCLQAGMNLEARKTK,-0.236 ± 0.05
18,KLCLVCSDEASGCHYGVLTCGSCKVFFKRAVEGQHGYLCAGRNDCIIDKIRRKNCPACRYRKCLQAGMNLEARKTK,-0.057 ± 0.032
19,KLCLVCSDEASGCHYGVLTCGSCKVFFKRAVEGQHNYLCAGRNDCIIDCIRRKNCPACRYRKCLQAGMNLEARKTK,0.045 ± 0.054
20,KLCLVCSDEASGCHYGVLTCGSCKVFFKRAVEGQHNYLCAGRNDCIIDKIRRKNCPACRYRKCLQAGTNLEARKTK,-0.595 ± 0.12
21,KLCLVPSDEASGCHYGVLTCGSCKVFFKRAVEGQHNYLCAGRNDCIIDKIRRKNCPACRYRKCLQAGMNLEARKTK,-0.931 ± 0.17
22,KLKLVCSDEASGCHYGVLTCGSCKVFFKRAVEGQHNYLCAGRNDCIIDKIRRKNCPACRYRKCLQAGMNLEARKTK,-0.823 ± 0.18
23,KLCLVCSDEASGCHYGVLTCGSCKVFFKRAVEGQHNYLCAGRNDCIIDKHRRKNCPACRYRKCLQAGMNLEARKTK,-0.153 ± 0.097
24,KLCLVCSDEASGCHYGVLTCGSCKVFFKRAVEGQHNYLCAGRNDCIIDKIRRKGCPACRYRKCLQAGMNLEARKTK,-0.104 ± 0.036

row,Variant,abundance fitness
1,KLCLVCSDEASGCHYGVLTCGSCKVFFKRAVEGQHNYLCANRNDCIIDKIRRKNCPACRYRKCLQAGMNLEARKTK,0.032 ± 0.075
2,KLCLVCSDEASGCHRGVLTCGSCKVFFKRAVEGQHNYLCAGRNDCIIDKIRRKNCPACRYRKCLQAGMNLEARKTK,-0.152 ± 0.036
3,KLCLVCSDEASGCHYGVLTCGSCKVFFKRAVEGQHNYLCAGRNDCIIDKIRRMNCPACRYRKCLQAGMNLEARKTK,0.001 ± 0.044
4,KLCLVCSDEASGCHYGVLTCGSCKVFFKRAVEGQHNYLCAGRNDCIIDKIRRKNCPACRYRKCLQAGMNLEARKTE,0.105 ± 0.059
5,KLCLVCSDEASGCHYGVLTCGSCKVFFKRAVEGQHNYLCAGRNDCIIDKIRRKNCPACRYRKCLQAGMNLEARKMK,-0.004 ± 0.062
6,KLCLVCSDEASGCHYGVLTCGSCKVFFKRAVEGQHNYLCAGRNDCIIDKIRRKNCRACRYRKCLQAGMNLEARKTK,-0.076 ± 0.031
7,KLCLVCSDEAPGCHYGVLTCGSCKVFFKRAVEGQHNYLCAGRNDCIIDKIRRKNCPACRYRKCLQAGMNLEARKTK,-0.096 ± 0.065
8,KLCLVCSDEASGCHYGVLTCGSCKVFFKRAVEGQGNYLCAGRNDCIIDKIRRKNCPACRYRKCLQAGMNLEARKTK,0.024 ± 0.032
9,KLCLVCSDEASGCHYGVLTCGSCKVFFKRAVEGQSNYLCAGRNDCIIDKIRRKNCPACRYRKCLQAGMNLEARKTK,-0.114 ± 0.04
10,KLCLVCSDEASGCHYGVLTCGSCKVFFKRAVEGQHNYLCAGRNDCSIDKIRRKNCPACRYRKCLQAGMNLEARKTK,0.005 ± 0.038
11,KLCLVCSDEASGCHYGVLTCGSCKVFFKRAVPGQHNYLCAGRNDCIIDKIRRKNCPACRYRKCLQAGMNLEARKTK,-0.388 ± 0.073
12,KLCLVCSDCASGCHYGVLTCGSCKVFFKRAVEGQHNYLCAGRNDCIIDKIRRKNCPACRYRKCLQAGMNLEARKTK,0.083 ± 0.052
13,KLCLVCSDEASGCHYNVLTCGSCKVFFKRAVEGQHNYLCAGRNDCIIDKIRRKNCPACRYRKCLQAGMNLEARKTK,0 ± 0.085
14,KLCLVCSDEASGCHYGVLTCGSCKVFFKRAVEGQHNYLCAGRNDCIIDKIRRKNCPACRYRKCLRAGMNLEARKTK,-0.053 ± 0.031
15,KLCLVCSDEASGCHYGVLTCGSCKVFFKRAVEGQHNYLCAGRVDCIIDKIRRKNCPACRYRKCLQAGMNLEARKTK,-0.285 ± 0.044
16,KLCLVVSDEASGCHYGVLTCGSCKVFFKRAVEGQHNYLCAGRNDCIIDKIRRKNCPACRYRKCLQAGMNLEARKTK,-1.06 ± 0.15
17,KLCLVCSDEASGCHYGVLTCGSCKVFFKRAVEGQHNYLCAGRNDCIIDKIRRKNCPACRYRKCLQAGMNLEMRKTK,0.005 ± 0.053
18,KLCLVCSDEKSGCHYGVLTCGSCKVFFKRAVEGQHNYLCAGRNDCIIDKIRRKNCPACRYRKCLQAGMNLEARKTK,-0.408 ± 0.092
19,KLCLVCSDEASGCHYGVLTCGSCKVFFKRAVEGQHNYLCAGRNDCIIDKIRRKNCPACRARKCLQAGMNLEARKTK,-0.425 ± 0.052
20,KLNLVCSDEASGCHYGVLTCGSCKVFFKRAVEGQHNYLCAGRNDCIIDKIRRKNCPACRYRKCLQAGMNLEARKTK,-0.67 ± 0.27
21,KLCLVCSDEASGCHYGVLTCGSCKVFFKRAVEGQHNYLCLGRNDCIIDKIRRKNCPACRYRKCLQAGMNLEARKTK,-0.065 ± 0.039
22,KLCLVCSDEASGCHYGVLTCGSCKVFFKRAVEGQHNYVCAGRNDCIIDKIRRKNCPACRYRKCLQAGMNLEARKTK,0.058 ± 0.031
23,KLCLVCSDEASGCHYGVLTCGSCKVFFKRAGEGQHNYLCAGRNDCIIDKIRRKNCPACRYRKCLQAGMNLEARKTK,-0.036 ± 0.035
24,KLCLVCSDFASGCHYGVLTCGSCKVFFKRAVEGQHNYLCAGRNDCIIDKIRRKNCPACRYRKCLQAGMNLEARKTK,-0.115 ± 0.071

row,Variant,abundance fitness
1,KLCLVCSDEASGCHYGVLTCGSCKVFFKRAVEGQHNYLCAGRNDCIIDKIRRKNCPACRYRKCLQAGMNLEARKQK,-0.099 ± 0.063
2,KLCLVCSDEASGCHYGVLTCGSCKVFFKRAVEGQHNYLCAGRNDCIIDKIRRQNCPACRYRKCLQAGMNLEARKTK,0.016 ± 0.043
3,KLCLVCSDEASYCHYGVLTCGSCKVFFKRAVEGQHNYLCAGRNDCIIDKIRRKNCPACRYRKCLQAGMNLEARKTK,-0.206 ± 0.065
4,KLCLVCSDEASGCHYGVLTCGSCKVFFKRAVEGQHNYLCAGRNDCIIDKIRRKNCPACRYRKCLQAGMNLEARITK,0.027 ± 0.08
5,KLCLVCSDEASGCHYGVLTCGSCKVFFKRAVEGQHNYLCAGRNDCIIDKIRRKNCPACRYRKCLQAGMNLEARKDK,0.023 ± 0.069
6,KLCLVCSDEASGCHYGVHTCGSCKVFFKRAVEGQHNYLCAGRNDCIIDKIRRKNCPACRYRKCLQAGMNLEARKTK,-0.012 ± 0.08
7,KLCLVCSDEASGCHYGVLTCGSCKVFFKRAVEGQHNYLCAGRNDCIIDKIRRKNCPACRYRKCLSAGMNLEARKTK,-0.009 ± 0.038
8,KLCLVCSDEASGCHYGVLTCGSCKVFFKRAVEGQHNYLCAGRNDYIIDKIRRKNCPACRYRKCLQAGMNLEARKTK,-0.704 ± 0.22
9,KLCLVCSDEASGCHYGVLTCGSCKVFFKRAVEMQHNYLCAGRNDCIIDKIRRKNCPACRYRKCLQAGMNLEARKTK,-0.052 ± 0.049
10,KLCLVCSDEASGCHYGVLTCGSCKVFFKRAVEGQHNYLCALRNDCIIDKIRRKNCPACRYRKCLQAGMNLEARKTK,-0.013 ± 0.035
11,KLCLVCSDEASGCHYGVLTAGSCKVFFKRAVEGQHNYLCAGRNDCIIDKIRRKNCPACRYRKCLQAGMNLEARKTK,-0.837 ± 0.12
12,KLCLMCSDEASGCHYGVLTCGSCKVFFKRAVEGQHNYLCAGRNDCIIDKIRRKNCPACRYRKCLQAGMNLEARKTK,-0.681 ± 0.095
13,KLCLVCSDEASGCHYGVLCCGSCKVFFKRAVEGQHNYLCAGRNDCIIDKIRRKNCPACRYRKCLQAGMNLEARKTK,0.061 ± 0.053
14,KLCLVCSDEASGCHYGVLTCGSCKVFFKRAVEGQHNYLCAGRNICIIDKIRRKNCPACRYRKCLQAGMNLEARKTK,-0.344 ± 0.14
15,KLCLVCSDEASGCHYGVLTCGSCKVFFKRAVEGQHNYLCAGRNDCIIDKIRRKNCPACRYRKCLQAGMNYEARKTK,0.023 ± 0.077
16,KLCLVCSDEASGCHYGVLTCGSCKVFFKRAVEGQHNYLCAGRNDCILDKIRRKNCPACRYRKCLQAGMNLEARKTK,-0.135 ± 0.034
17,KLCLVCSDEASGCHYGVLTCGSCKVFFKRAVEGQHNYLCAGRNDCIIDKQRRKNCPACRYRKCLQAGMNLEARKTK,0.046 ± 0.049
18,HLCLVCSDEASGCHYGVLTCGSCKVFFKRAVEGQHNYLCAGRNDCIIDKIRRKNCPACRYRKCLQAGMNLEARKTK,-0.304 ± 0.12
19,KLCLVCSDEASGCHYGVLTCGSCKVFFKRAVEGQHNYLCAGRNDCIIDKIRRKNCPACRYRKCLQAGMNLEAYKTK,-0.062 ± 0.073
20,KLCLVCSDEASGCHYGVLTCGSCKVFFKRAVEGQHNYLCAGRNDCIIDKIRRKQCPACRYRKCLQAGMNLEARKTK,-0.006 ± 0.042
21,KLCLVCSDEASGCHYGVLTCGSCKVFFKRAVEGQHNYLCAGRNDCIIDQIRRKNCPACRYRKCLQAGMNLEARKTK,-0.033 ± 0.047
22,KLCLVCSDEASGCHYGVLTCGSCKVFFKRAVEGQHNYLCAGRNFCIIDKIRRKNCPACRYRKCLQAGMNLEARKTK,-0.381 ± 0.18
23,KLCLVCSDEASGCHYGVLTCGSCKVFFKRAVEGQHNYLCAGRNDCIIYKIRRKNCPACRYRKCLQAGMNLEARKTK,-0.139 ± 0.1
24,MLCLVCSDEASGCHYGVLTCGSCKVFFKRAVEGQHNYLCAGRNDCIIDKIRRKNCPACRYRKCLQAGMNLEARKTK,0.046 ± 0.046
